Laboratory results: US7799901B2, “Modulators of the function of FAS receptors and other proteins” (Yeda Research and Development Co. Ltd., priority 1995, dated 2010)

Tests used:
[1] = test system: fragment of MORT-1 corresponding to residues 1-117; experiment: Two-hybrid test (FIG. 1), binding to MORT-1 residues 1-117
From the text: (§1) To isolate proteins interacting with the intracellular domain of the FAS-R, the yeast two-hybrid system was used (Fields and Song, 1989). […] In this system, the genes for the candidate interacting proteins are cloned into separate expression vectors. In one expression vector, the sequence of the one candidate protein is cloned in phase with the sequence of the GAL4 DNA-binding domain to generate a hybrid protein with the GAL4 DNA-binding-domain, and in the other vector, the sequence of the second candidate protein is cloned in phase with the sequence of the GAL4 activation domain to generate a hybrid protein with the GAL4-activation domain. The two hybrid vectors are then co-transformed into a yeast host strain having a lacZ or HIS3 reporter gene under the control of upstream GAL4 binding sites. Only those transformed host cells (cotransformants) in which the two hybrid proteins are expressed and are capable of interacting with each other, will be capable of expressing the reporter gene. In the case of the lacZ reporter gene, host cells expressing this gene will become blue in color when X-gal is added to the cultures. […]
(§2) In FIG. 1, there is depicted the interaction of the proteins encoded by the Gal4 DNA binding domain and activation-domain constructs (pGBT9 and pGAD-GH) within transfected SFY526 yeasts as assessed by β-galactosidase expression filter assay. […]

[2] = molecular target: T1, MORT-1 (Homo sapiens, UniProt Q13158, G32V); experiment: Two-hybrid test (FIG. 1), binding to full-length MORT-1; set-up: expressed in transfected cells; host or cells: SFY526 yeast
T1 sequence (Q13158 with tags, fused parts or gaps G32V): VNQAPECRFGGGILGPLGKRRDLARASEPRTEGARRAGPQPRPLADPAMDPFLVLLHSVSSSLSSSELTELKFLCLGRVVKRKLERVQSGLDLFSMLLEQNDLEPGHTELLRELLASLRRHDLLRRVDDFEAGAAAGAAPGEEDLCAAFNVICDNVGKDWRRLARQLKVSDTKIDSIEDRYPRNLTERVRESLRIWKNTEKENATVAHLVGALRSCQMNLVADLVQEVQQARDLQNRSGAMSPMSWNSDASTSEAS
From the text: To isolate proteins interacting with the intracellular domain of the FAS-R, the yeast two-hybrid system was used (Fields and Song, 1989). […] In this system, the genes for the candidate interacting proteins are cloned into separate expression vectors. In one expression vector, the sequence of the one candidate protein is cloned in phase with the sequence of the GAL4 DNA-binding domain to generate a hybrid protein with the GAL4 DNA-binding-domain, and in the other vector, the sequence of the second candidate protein is cloned in phase with the sequence of the GAL4 activation domain to generate a hybrid protein with the GAL4-activation domain. The two hybrid vectors are then co-transformed into a yeast host strain having a lacZ or HIS3 reporter gene under the control of upstream GAL4 binding sites. Only those transformed host cells (cotransformants) in which the two hybrid proteins are expressed and are capable of interacting with each other, will be capable of expressing the reporter gene. In the case of the lacZ reporter gene, host cells expressing this gene will become blue in color when X-gal is added to the cultures.
(b) retransforming the plasmid DNA and original FAS-IC hybrid plasmid and control plasmids described in (a) into yeast host cells of strain SFY526 and determining the LACZ^+ activity (effectivity of β-gal formation, i.e., blue color formation).
In FIG. 1, there is depicted the interaction of the proteins encoded by the Gal4 DNA binding domain and activation-domain constructs (pGBT9 and pGAD-GH) within transfected SFY526 yeasts as assessed by β-galactosidase expression filter assay. The DNA-binding-domain constructs included four constructs of the human Fas-IC, four constructs of the mouse Fas-IC including two full-length constructs having […] or Ile to Ala replacement mutations at position 225 (I225N and I225A, respectively), and three MORT-1 constructs, all of which are shown schematically on the left hand side of FIG. 1. […]

[3] = test system: FAS-R mediated cell death in HeLa cells; experiment: Anti-FAS-R antibody (CH-11) induced death of HeLa cells co-expressing FAS-R, neutral-red uptake; assay type: cell-based; details: co-expression with human FAS-R in HeLa HtTA-1; CH-11 antibody plus 10 μg/ml cycloheximide
From the text: In another set of experiments to analyze the region of the MORT-1 protein involved in the binding to the FAS-IC, the following proteins were expressed transiently in HeLa cells that contain a tetracycline-controlled transactivator (HtTA-1), using a tetracycline-controlled expression vector (pUHD10-3): Human FAS-R alone; Human FAS-R as well as the N-terminal part of MORT-1 (amino acids 1-117, the “MORT-1 head”); Human FAS-R as well as the C-terminal part of MORT-1, which contains its ‘death domain’ homology region (amino acids 130-245, the “MORT-1 DD”); FLAG-55.11 (amino acids 309-900 of protein 55.11 fused at the N-terminus to the FLAG octapeptide, the protein 55.11 being a p55-IC-specific binding protein. Twelve hours after transfection, the cells were trypsinized and re-seeded at a concentration of 30,000 cells/well. After 24 hrs further incubation, the cells were treated for 6 hrs with a monoclonal antibody against the extracellular domain of FAS-R (monoclonal antibody CH-11, Oncor, Gaithersburg, Md., USA) at various concentrations (0.001-10 μg/ml monoclonal antibody), in the presence of 10 μg/ml cycloheximide. Cell viability was then determined by the neutral-red uptake assay and the results were presented in terms of % viable cells as compared to cells that had been incubated with cycloheximide alone (in the absence of anti-FAS-R monoclonal antibody CH-11). […]

[4] = molecular target: T2, FAS-IC (Homo sapiens, UniProt P25445); experiment: Two-hybrid test (FIG. 1), binding of MORT-1 fragments to FAS-IC
T2 construct: the FAS-IC extends-from amino acid residues 175-319 of the intact FAS-R; expressed in transfected cells; host or cells: SFY526 yeast
T2 sequence (P25445 191-335): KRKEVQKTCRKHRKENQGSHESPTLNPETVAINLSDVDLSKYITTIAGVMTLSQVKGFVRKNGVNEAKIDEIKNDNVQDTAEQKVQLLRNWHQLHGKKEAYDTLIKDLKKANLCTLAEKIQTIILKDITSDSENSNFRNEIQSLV
From the text: as §1, §2

B1: fragment of MORT-1 corresponding to residues 1-117: N-terminal part of MORT-1, amino acids 1-117 (protein)
chain: VNQAPECRFGGGILGPLGKRRDLARASEPRTEGARRAGPQPRPLADPAMDPFLVLLHSVSSSLSSSELTELKFLCLGRVVKRKLERVQSGLDLFSMLLEQNDLEPGHTELLRELLAS
[1]
  binding to MORT-1 residues 1-117 in two-hybrid test: does not bind
[2]
  binding to full-length MORT-1 in two-hybrid test: binds
[3]
  effect on FAS-induced (FAS-R mediated) cell death: does not interfere
[4]
  binding to FAS-IC / FAS-R in two-hybrid test: does not bind
